Here are results for two molecules from publication PMC7851689, “Expanding the Enzyme Repertoire for Sugar Nucleotide Epimerization: the CDP-Tyvelose 2-Epimerase from Thermodesulfatator atlanticus for Glucose/Mannose Interconversion” (Applied and Environmental Microbiology, 2021).

Data set [1] addresses CDP-tyvelose 2-epimerase-like enzyme from Thermodesulfatator atlanticus (TaCPa2E) (Thermodesulfatator atlanticus). Nature of the data set: SEC; gel filtration of the purified C-terminally His-tagged protein; conditions not shown (Fig. S3 and S4, supplemental material). On the technique in general: SEC sorts molecules by how far they enter the pores of the column.
Substrate in data set [2]: Nc1ccn([C@@H]2O[C@H](COP(=O)(O)OP(=O)(O)O[C@H]3O[C@H](CO)[C@@H](O)[C@H](O)[C@@H]3O)[C@@H](O)[C@H]2O)c(=O)n1
Put plainly: purified protein. The conditions noted are these: pH 7.5; 60.0 °C.

Substrate in data set [3]: Nc1ccn([C@@H]2O[C@H](COP(=O)(O)OP(=O)(O)O[C@H]3O[C@H](CO)[C@@H](O)[C@H](O)[C@H]3O)[C@@H](O)[C@H]2O)c(=O)n1
Nature of the data set: purified protein. The conditions noted are these: pH 7.5; 60.0 °C.

For orientation: stoichiometry N means a count of units in the complex or per binding partner. “CDP-tyvelose 2-epimerase-like enzyme from Thermodesulfatator atlanticus (TaCPa2E)”: the stoichiometry N in data set [1] amounted to 2.

B1: TaCPa2E (Thermodesulfatator atlanticus) (protein)
chain: MKYLITGGCGFLGSNLASEVLRKREELIIFDNLYRIGSYENLEWLKQQGDFRFVHGDIRNREDIEKVIKEEKPDVIFHLAGQVAMTTSIENPRLDFEVNALGTFNLLDAVRKYSPESIIIYSSTNKVYGDLGWVRYEETETRYIAPDFPNGFPESIPLDFHSPYGCSKGAADQYMLDFCRIYGIKTVVFRHSSMYGGRQFATYDQGWIGWFCLKAIEIKKGLLKEPFTIHGNGKQVRDVLYADDMIELYFKTIENIEKAKGEAFNIGGGMENSLSLLELFSLLEKELDIKMRYKKLPWRESDQKIFVADIRKAQKLIGWQPKVSKYNGIQKMLEWIKKLV
As usually defined, the Km is the concentration of substrate that gives half-maximal velocity. For the molecule B1, the Km in “purified protein [2]” is 310 ± 10 µM; in the data set “purified protein [3]”, 320 ± 20 µM.
